Experimental data as given in publication PMC4605427.

Columns and labels:
[1] = target: phosphorylated cytosolic domain of the TCR γ-chain (pCD3γCD) (UniProt P09693); assay: BLI
[2] = target: GST-pCD3γCD fusion protein (UniProt P09693); assay: ELISA

Substance	Kd [1]	KD2 (weak set), fold against its KD1 [1]	koff1, ratio against AADN and tSH2 [1]	koff2 (weak set), fold against its koff1 [1]	kon1, fold against AADN and tSH2 [1]	kon2 (weak set), fold against its kon1 [1]	fold concentration needed, against YY, to compete similarly [2]
recombinant tSH2 module of ZAP-70 (aa 1–256) (from UniProt P43403 1-256) (domain or fragment)	10 nM	–	–	–	–	–	–
ZAP-70 phenylalanine mutant Y315/Y319F, kinase-dead (FFDN) (from UniProt P43403 1-619) (enzyme)	–	10 fold	0.5 fold	20 fold	2 fold	2 fold	3 fold
kinase-dead D461N mutant of ZAP-70 (YYDN) (from UniProt P43403 1-619) (enzyme)	–	10 fold	0.5 fold	20 fold	2 fold	2 fold	–
